Results taken from article PMC4991664.

Target: Atad2-tag (endogenous mouse Atad2 with a C-terminal 6xHis-Flag-Ha TAP tag, knock-in) (mouse (endogenous in 46C ES cells)) (UniProt Q8CDM1)
Test: co-IP; anti-Flag immunoprecipitation of protein extracts of 46C^tag and parental 46C ES cells; western blot with anti-H4 and anti-acetylated H4, compared with dilutions of the input

Chain of UniProt Q8CDM1 (Q8CDM1 whole entry): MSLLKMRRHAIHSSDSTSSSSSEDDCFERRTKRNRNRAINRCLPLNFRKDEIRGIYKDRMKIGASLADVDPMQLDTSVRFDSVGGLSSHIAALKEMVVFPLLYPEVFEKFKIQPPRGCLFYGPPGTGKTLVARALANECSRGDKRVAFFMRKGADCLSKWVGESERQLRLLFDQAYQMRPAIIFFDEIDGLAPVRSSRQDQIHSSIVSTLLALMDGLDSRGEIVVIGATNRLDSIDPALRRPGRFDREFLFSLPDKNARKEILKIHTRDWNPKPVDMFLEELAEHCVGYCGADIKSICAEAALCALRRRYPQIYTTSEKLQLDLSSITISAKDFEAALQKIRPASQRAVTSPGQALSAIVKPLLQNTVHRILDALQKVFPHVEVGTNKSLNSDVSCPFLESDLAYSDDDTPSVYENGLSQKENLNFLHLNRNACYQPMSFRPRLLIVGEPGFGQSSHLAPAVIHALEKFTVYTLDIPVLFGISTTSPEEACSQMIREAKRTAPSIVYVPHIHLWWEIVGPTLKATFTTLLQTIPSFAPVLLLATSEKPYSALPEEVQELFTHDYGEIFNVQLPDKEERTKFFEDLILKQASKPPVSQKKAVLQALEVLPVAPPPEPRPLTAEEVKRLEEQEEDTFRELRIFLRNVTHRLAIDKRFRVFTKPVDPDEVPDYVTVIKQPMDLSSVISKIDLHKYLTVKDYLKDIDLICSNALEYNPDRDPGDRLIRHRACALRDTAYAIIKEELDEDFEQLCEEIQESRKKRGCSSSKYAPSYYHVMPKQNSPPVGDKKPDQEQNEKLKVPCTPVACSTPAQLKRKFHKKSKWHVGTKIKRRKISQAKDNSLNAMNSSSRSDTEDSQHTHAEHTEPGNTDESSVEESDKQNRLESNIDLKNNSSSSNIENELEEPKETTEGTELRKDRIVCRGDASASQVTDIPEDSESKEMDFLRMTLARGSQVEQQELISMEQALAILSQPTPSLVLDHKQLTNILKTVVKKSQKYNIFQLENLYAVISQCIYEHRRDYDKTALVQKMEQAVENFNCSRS

Row | fraction of the input immunoprecipitated (fraction of the input) | Substance
1 | 0.02 | acetylated histone H4 (from UniProt P62806 1-103) (natural protein)
2 | 0.01 | histone H4 (from UniProt P62806 1-103) (natural protein)
